Tested on: K4 kissing-loop RNA reporter
Test: apparent KD of K4 kissing-loop reporter; higher = weaker reporter binding
Conditions: Eterna round: R107
Protocol: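 RNA-MaP round R107: designed RNA switches with theophylline, tryptophan, arginine or FMN aptamers are transcribed on-chip within common flanks. They are titrated with a labelled K4 kissing-loop RNA reporter in RNA-MaP buffer (100 mM Tris pH 7.5, 80 mM KCl, 4 mM MgCl2), without ligand or with the indicated ligand. Median apparent KD per design.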

[1] = input ligand: theophylline 20 uM
[2] = input ligand: tryptophan 2.4 mM
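Note: bound reporter read as fluorescence of individual clusters on recovered sequencing chips by microscopy, with normalized cluster intensities fitted with a binding model.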

Sequence	apparent KD of K4 kissing-loop reporter (input ligand: FMN 200 uM) [µM]	apparent KD of K4 kissing-loop reporter (input ligand: arginine 13.2 mM) [µM]	apparent KD of K4 kissing-loop reporter (input ligand: none) [µM]	apparent KD of K4 kissing-loop reporter [1] [µM]	apparent KD of K4 kissing-loop reporter [2] [µM]
AGUGAUGUUGUGUUAUGUUAGGGAAGUGAUCGAGGACCGGUACGGCCGCCACUCGAGUGAUGAGUGAGUGAUGUUUGUUUAGGGA [yytmullin]	1.03	0.67	1.61	1.07	0.59
GCCGUACGCAUGGAUACCAGAUGGCACUAUUUUCUCCCAGAGUGAUGUUCUGGCCUGCCUAUCCCUUGGCAGCCAUGCGUACGGC	0.806	0.616	0.8	0.488	0.671
AAUAAAAUCACGGCCGCCACUGAAUAAUUACGAAGUAGUGAUGUUACUUCACAUAUCUUAUUUAACAGGACCGGGUGAAUAUUUA [#16 K4 Tryptophan B Exclusion]	0.0723	0.0663	0.0709	0.0651	0.0818
GGUAGUGCUAGCGAUACCAGUCAUAUCGCUCUGGAGUGAUGUUCCGGAACGUGCGGAGAAGACCCUUGGCAGCGCUUGACGGUGU [Exclusion Theophylline B GF5]	0.218	0.234	0.318	0.251	0.298
CGUGCCCGGCCGGAUACCAGUGACCCGCUGGGAACCGCGGGCCCAGAGUGAUGUUCGGGACACCCUUGGCAGCCGCCUGGGCGGC [#2 Same State - Theophylline B Attempt #13 (HarryS)]	0.987	0.637	1.08	0.614	0.655
UCGGUAUAGUGAUGUUAUAUAGAGAGUGAUACCAGUUUAGAGAGAAACCCUUGGCAGCAUAGAAGAGUAUCAUUGGAGGAGGAGG [#20 K4 Theophylline A Exclusion]	0.455	0.417	0.387	0.336	0.301
GCAUCCAUGGCAGGAUAUAGGUUCGUGGAGUGAUGUUCCAUAGCCCGAGUGAUGUUCGUUAUCCGCCUAGAAGGGCCAUGGAUGC [whbob_Ex_FMNB__2th213]	0.247	0.192	0.227	0.219	0.203
AUUUAAUUAACUGAUACCAGACUUUUUGUUUUGUUUAUUACUAGUGAUGUUAGUGUUUCUGUCCCUUGGCAGCAGAAUCUACUUA [JR_ExcTheophyB_Sub019]	0.172	0.297	0.191	0.364	0.165
GCCGUACGCAUGGAUACCAGUCUUAGAGUGAUGUUCUAAUCGAUUGCGCCUGGAUCAAUGGACCCUUGGCAGCCAUGCGUACGGC	0.129	0.0973	0.12	0.125	0.112
AGGCCCGGCCGAAAGGCCGGGCCAAGAGAUACCAGCAGCGAAAGCUGCCCUUGGCAGCUCACUUAGUGAUGUUAAGAAUAGAACA [SS Theo A Tesla 1]	0.538	0.464	0.375	0.485	0.39
UCUAACAAAUCGGCCGCCACUGAAAUAACCCAGGAGUGAUGUUCCAUCGUCCUAGACUACUCUUCCAGGACCGGGAUCUGUGUUC [theeternabot_exclusion_KL_Trp_B_25]	0.298	0.348	0.529	0.472	0.284
GGUUAGUGAUGUUGAUCAAAUCGCGGUGAUACCAGCAACACAUCGUGCCCUUGGCAGCACGGCAAAAUGAAUGCGGUCGAAUGCG [theeternabot_exclusion_KL_Theo_A_19]	0.487	0.484	0.546	0.478	0.412
UUAGUCUAGAGAAGGAGCGAGUGAUGUUCGCAUGCUAUGAUGAAUUCAUCAUAGUUUAAUCCUCAGGUAGGUCGCUCUAGACAUU [AK7 Exc Arginine B]	0.427	0.339	0.418	0.355	0.35
GGCAGUGAUGUUGCCAGUGGCAGAUUGGAAGGAGCGUGGUGAGACACAGGUAGGUCGCUAAUUGAAGUUGCUGUCACUAAAAUGC [whbob_Ex_Arginine_A_2t131]	0.276	0.299	0.307	0.26	0.241
UUUAUAUUGUCGGCCGCCACUGGAUUAAUAUUUGUAUAAUCUAGUUCAAAGUGAUGUUUUGAGUCCAGGACCGGGACAUUUGAUA [JR_Nu_ExcTryptoB_Sub029]	0.622	0.501	0.624	0.575	0.491
AAGACUGCAGGAAGGAGCGGCGGACGGAGUGAUGUUCCGGCUAGUGAUGUUAGCAAACACCGCCAGGUAGGUCGCCUGUUGCUCU [Same State Arginine B GF7]	0.113	0.116	0.126	0.166	0.128
AGUAAUGAGUGAUGUUCAAUUAGUAAGGAUACCAGUAAUUCAAAAUGCCCUUGGCAGCUUAACGCUACCAAUAGAUUAAUAAUGG [First try - Theophylline A]	0.128	0.18	0.119	0.182	0.0955
